assay: yeast display, Sf9 membrane polyspecificity reagent, FACS + sequencing; frameworks hold sequencing errors
How it was run: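 Using colony PCR, genes from sorted yeast display clones were amplified, then sequenced on MiSeq at 2 × 250 and filtered by CDR length. The clones had been stained with 10% biotinylated, detergent-solubilized Sf9 membrane reagent for 1 hour at 4 °C and sorted by FACS into low and high (top ~1%) gates on anti-HA and streptavidin fluorescence. Polyreactivity labels come from the gate of origin.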

| Sequence | polyreactivity (PSR sort gate) |
| --- | --- |
| QVQLVESGGGLVQAGGSLRLICAASGSTFYEYAMGWYRQAPGKERELVAAISSNGARTYYADSVKVRFTISRDNAKNTVYLQMISLKPEDTAVYYCALVYRYAHTKYDYWGQGTQVTVSS | high polyreactivity |
| QVQLVESGGGLVQAGGSLRLICAASGSTFYPNAIGWYRQAPGKERELVAAISYTGGRTYYADSVKGRFTISRDNAKNTVYLQMNSLKPEDTAVYYCAVLVVGSTTQDEPYFCGVEHDYWGQGTQVTVSS | low polyreactivity |
| QVQLVESGGGLVQAGGSLRLICAASGSTFYWYMGWYRQAPGKERELVAAITSGGRTYYADSVKGRFTISRDNAKNTVYLQMNSLKPEDTAVYYCATTRRYAYRGGHNYWGQGTQVTVSS | high polyreactivity |
| QVQLVESGGGLVQAGGSLRLICAASGSTIAVYAIGWYRQAPGKERELVASISFSVVSTSYADSVKGRFTISRDNAKNTVYLQMNSLKPEDTAVYYCSTYYVRASYRYDYWGQGTQVTVSS | high polyreactivity |
| QVQLVESGGGLVQAGGSLRLICAASGSTLTSNSMGWYRQAPGKERELVASISRRGDSTNYADSVKGRFTISRDNAKNTVYLQMNSLKPEDTAVYYCVAYGYFQSNLWSEFDYWGQGTQVTVSS | low polyreactivity |
| QVQLVESGGGLVQAGGSLRLICAASGSTYDRNVLGWYRQEPGKERELVAAISRVSSTNYADSVKGRFTISRDNAKNTVYLQMNSLKPEDTAVYYCAADRAGSIMNYWGQGTQVTVSS | low polyreactivity |
| QVQLVESGGGLVQAGGSLRLICAASGTTFGRNAMGWYRQAPGKERELVDAIDSGASTYYADSVKGRFTISRDNAKNTVYLQMNSLKPEDTAVYYCGADVVYDYGGMDYWGQGTQVTVSS | low polyreactivity |
| QVQLVESGGGLVQAGGSLRLICAASGYIFPYYAIGWYRQAPGKERELVAGITTDGSSTYYADSVKGRFTISRDNAKNTVYLQMPSLKPEDTAVYYCYGYPGYTWGWYDYWGQGTQVTVSS | low polyreactivity |
| QVQLVESGGGLVQAGGSLRLICAASGYTFGGYAMGWYRQAPGKERVLVAAISTDGDSTFYADSVKGRFTISRDNAKNTVYLQMNSLKPEDTAVYYCAASVNTGSVTEYDYWGQGTQVTVSS | low polyreactivity |
| QVQLVESGGGLVQAGGSLRLICAASVSTFVRNAMGLYRQAPGKERELVAAISRSGGRTYYADSVKGRFTISRDNAKNTVYLQMNSLKPEDTSVYYCAADGKSVYDYWGQGTQVTVSS | high polyreactivity |
| QVQLVESGGGLVQAGGSLRLICAGSGLTFPYYTMGWYRQAPGEERELVAAISRRGGSTYYADSVKGRFTISRDNAKNTVYLQMNSLKPEDTAVYYCAADKYSWYDYWGQGTQVTVSS | low polyreactivity |
| QVQLVESGGGLVQAGGSLRLICASSGCTFGDYAMGWYRQEPGKERELVAAITIGGITTYADSVKGRFTISRDTAKYTVYLQRNSLKPEDTAVYYCAAAERGHWDDYWGQGTQVTVSS | low polyreactivity |
| QVQLVESGGGLVQAGGSLRLICAVSGHIFGSNAMGWYRQAPGKERELVAAIRSSGGSTYYADSVKGRFTISRDYAKNTVYLQMNSLKPEDTAVYYCAVETLTSTSLTRMDYWGQGTQVTVSS | low polyreactivity |
| QVQLVESGGGLVQAGGSLRLICDASGIIFYDYAMGWYRQAPGKERELVAAITSSGGSTYYADSVKGRFTISRDNAKNTVYLQMNSLKPEDTAVYYCAAATRGSGRRYDYWGQGTQVTLSS | high polyreactivity |
| QVQLVESGGGLVQAGGSLRLICDASGLTFGIYTMGWYRQAPAKESELVAAINWIGTRTYYADSVKGRFTISRDNAKNTVYLQMNSLKPEDTAVYYCATVIGYTKRKYDYWGQGTQVTVSS | high polyreactivity |
| QVQLVESGGGLVQAGGSLRLICDASGNTIIRYAMGWYRQGPGKERELVAAISYSGGRTYYADSVKGRFTISRDNAKNTVYLQMNSLKTEVTAVYYCNAASRYGCDYWRQGTQVTVSS | high polyreactivity |

| Sequence | polyreactivity (PSR sort gate) |
| --- | --- |
| QVQLVESGGGLVQAGGSLRLICDASGRIFSFNAMGWSRQAPGKETELVAGITYGGNTYYADSVKGRFTISRDNANNTVYLQMNSLKPEDTAVYYCSAVRGVRHDYWGQGTQVTVSS | low polyreactivity |
| QVQLVESGGGLVQAGGSLRLICDAYVSTFYYYAMGWYRQAPGKVRELVAAISSGGSTNYADSVKGRFTISRDNAKNTVYLQMNILKPEDTAVYYCNAYSYWWLGYDYWGQGTQVTVSS | high polyreactivity |
| QVQLVESGGGLVQAGGSLRLICGASGLTSWYNAMGWYRQAPGKEREFVAAISFSGGRTFYADSVKGRFTISRDNAKNTVYLQMNSLKPEDTAVYYCNADVYGFDYWGQGTQVTVSS | high polyreactivity |
| QVQLVESGGGLVQAGGSLRLICSASGRIFSYNVMGWYRQAPGKEREVVAAITSNDGSTYYADSVKGRFTISRDNAKNTVYLQMNSLKPEDTAVYYCAAPYDYAEYYYWGQGTQVTVSS | low polyreactivity |
| QVQLVESGGGLVQAGGSLRLICSASGRTFAGYVMGWYRQAHGKERELVAAINASGGSTYYADSVKGRFTISRDNAKNTVYLQKNILKPEDTAVYYCAAARLGSDITRRYYYWGQGTQVTVSS | high polyreactivity |
| QVQLVESGGGLVQAGGSLRLICSASGSIFYRNVKRWSRQAPGKEREFVATISRGGTTNYADSVKGRITISRDNAKYTVYLQMNSLKPEDTAVYYCAAPIGVVYVGKGYDYWGQGTQVTLSS | low polyreactivity |
| QVQLVESGGGLVQAGGSLRLIFAASGRIFRPNAMGWYRQAPGKEREFVAAITSSSGTTYYADSVKGRFTISRDNAKNTVYLQMNSLKPEDSAVYYCAAKYTSRSYKYDYWGQGTQVTVSS | high polyreactivity |
| QVQLVESGGGLVQAGGSLRLIGAASGRSLYVYEMGWYRQAPGNDRELVAAISRGGGRTYYADSVKRRFTISRDKAKNTVYVQRNSLKPEDTAVYYGAAPLLIGVSTYRIAPRSGYWGQGTQVTLSS | high polyreactivity |
| QVQLVESGGGLVQAGGSLRLISAASGRIFDLYTMGWYRQAPGKERELVAAIRWSHGSTYYADSVKGRFTISRDNAKNTVYLQMNSLKPEDTAVYYCAADTRTSYYNDDYDYWGQGTQVTVSS | low polyreactivity |
| QVQLVESGGGLVQAGGSLRLISAASGSTFDSYAMGWYRPAPGKERELVAAITRSVGSTYYADSVKGRFTISRDNAKNTVYLHMNSVKPEVTAVYYCAARGEWAIYVEFDYWGQGTQVTVSS | low polyreactivity |
| QVQLVESGGGLVQAGGSLRLISAASGSTIIRNAMGWYRQAPGKERELVAAISTSGGRTHYADSVKGRFTISRDNAKTTVYLQMNSLKPEDTAVYDCAASNGYQAVTYDYWGQGTQVTVSS | high polyreactivity |
| QVQLVESGGGLVQAGGSLRLNCAASGSTFFGNAMGWYRQAPGKERELVAAISGSGGSTYYADSVKGRFTISRDNAKNTVYLQMNSLKPEDTAVYYCAKYYLTGLARYDYWGQGTQVTVSS | high polyreactivity |
| QVQLVESGGGLVQAGGSLRLNCSAYGSTFFDYVMGWYRQAPGKERDLVAAITRGGSSNYADSVKGRFTISRDNAKNTVYLQMNRLKPEDTAVYYCNAKRDKGFYWWYNYWGQGNQVTVSS | high polyreactivity |
| QVQLVESGGGLVQAGGSLRLNSAASGSIFYRYAMRWYRQAPGKERELVAAISSNGGRTYYADSVKGRFTISRDNSKNTVYLQMNSLKPEDTAVYYCATLPGYSMDYWGQGTQVTVSS | high polyreactivity |
| QVQLVESGGGLVQAGGSLRLRCAASGFIFDYYAMGWYRQAPGKEWELVAGISWSGGSTYYADSVKGRFTISRDNAKNTVYLQMNSLKPEDTAVYYCATDDYLVIFEYDYWGQGTQVTVSS | low polyreactivity |
| QVQLVESGGGLVQAGGSLRLRCAASGFIFGRYTMGWYRQAPGKERELVAAISSRGGSTYYADSVKGRFTISRDNAKNTVYLQMNSLKPEDTAVYYCAADEIYCYDYWGQGTQVTVSS | high polyreactivity |
